# Reference: IntAct's records for PubMed 31515488
# B1: 2'-5'-oligoadenylate synthase 2 (Homo sapiens), P29728 (parent)
# chain: MGNGESQLSSVPAQKLGWFIQEYLKPYEECQTLIDEMVNTICDVLQEPEQFPLVQGVAIGGSYGRKTVLRGNSDGTLVLFFSDLKQFQDQKRSQRDILDKTGDKLKFCLFTKWLKNNFEIQKSLDGFTIQVFTKNQRISFEVLAAFNALSLNDNPSPWIYRELKRSLDKTNASPGEFAVCFTELQQKFFDNRPGKLKDLILLIKHWHQQCQKKIKDLPSLSPYALELLTVYAWEQGCRKDNFDIAEGVRTVLELIKCQEKLCIYWMVNYNFEDETIRNILLHQLQSARPVILDPVDPTNNVSGDKICWQWLKKEAQTWLTSPNLDNELPAPSWNVLPAPLFTTPGHLLDKFIKEFLQPNKCFLEQIDSAVNIIRTFLKENCFRQSTAKIQIVRGGSTAKGTALKTGSDADLVVFHNSLKSYTSQKNERHKIVKEIHEQLKAFWREKEEELEVSFEPPKWKAPRVLSFSLKSKVLNESVSFDVLPAFNALGQLSSGSTPSPEVYAGLIDLYKSSDLPGGEFSTCFTVLQRNFIRSRPTKLKDLIRLVKHWYKECERKLKPKGSLPPKYALELLTIYAWEQGSGVPDFDTAEGFRTVLELVTQYQQLCIFWKVNYNFEDETVRKFLLSQLQKTRPVILDPAEPTGDVGGGDRWCWHLLAKEAKEWLSSPCFKDGTGNPIPPWKVPTMQTPGSCGARIHPIVNEMFSSRSHRILNNNSKRNF
# B2: Notch homolog 2 N-terminal-like protein A (Homo sapiens), Q7Z3S9 (parent)
# chain: MCVTYHNGTGYCKCPEGFLGEYCQHRDPCEKNRCQNGGTCVAQAMLGKATCRCASGFTGEDCQYSTSHPCFVSRPCLNGGTCHMLSRDTYECTCQVGFTGKECQWTDACLSHPCANGSTCTTVANQFSCKCLTGFTGQKCETDVNECDIPGHCQHGGTCLNLPGSYQCQCLQGFTGQYCDSLYVPCAPSPCVNGGTCRQTGDFTFECNCLPETVRRGTELWERDREVWNGKEHDEN
# partner: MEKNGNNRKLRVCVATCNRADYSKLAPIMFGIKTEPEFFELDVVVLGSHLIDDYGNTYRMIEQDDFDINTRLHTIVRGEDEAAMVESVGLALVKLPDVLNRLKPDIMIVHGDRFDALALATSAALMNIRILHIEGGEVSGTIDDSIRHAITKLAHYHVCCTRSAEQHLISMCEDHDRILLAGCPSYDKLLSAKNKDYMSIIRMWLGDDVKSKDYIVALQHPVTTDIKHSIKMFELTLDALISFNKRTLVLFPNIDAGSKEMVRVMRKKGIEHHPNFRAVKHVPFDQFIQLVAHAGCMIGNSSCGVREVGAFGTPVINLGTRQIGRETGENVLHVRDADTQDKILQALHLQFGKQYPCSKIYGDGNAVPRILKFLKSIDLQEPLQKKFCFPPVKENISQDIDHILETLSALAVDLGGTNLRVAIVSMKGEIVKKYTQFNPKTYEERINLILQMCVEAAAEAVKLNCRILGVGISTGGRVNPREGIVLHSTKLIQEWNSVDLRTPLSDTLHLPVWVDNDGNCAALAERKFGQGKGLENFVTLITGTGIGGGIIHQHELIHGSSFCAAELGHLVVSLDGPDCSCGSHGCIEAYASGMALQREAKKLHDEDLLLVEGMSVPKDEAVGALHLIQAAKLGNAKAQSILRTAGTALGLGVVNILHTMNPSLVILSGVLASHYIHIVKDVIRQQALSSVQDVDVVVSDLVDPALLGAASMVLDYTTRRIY
# B3: Tuftelin-interacting protein 11 (Homo sapiens), Q9UBB9 (parent)
# chain: MSLSHLYRDGEGRIDDDDDERENFEITDWDLQNEFNPNRQRHWQTKEEATYGVWAERDSDDERPSFGGKRARDYSAPVNFISAGLKKGAAEEAELEDSDDEEKPVKQDDFPKDFGPRKLKTGGNFKPSQKGFAGGTKSFMDFGSWERHTKGIGQKLLQKMGYVPGRGLGKNAQGIINPIEAKQRKGKGAVGAYGSERTTQSMQDFPVVDSEEEAEEEFQKELSQWRKDPSGSKKKPKYSYKTVEELKAKGRISKKLTAPQKELSQVKVIDMTGREQKVYYSYSQISHKHNVPDDGLPLQSQQLPQSGKEAKAPGFALPELEHNLQLLIDLTEQEIIQNDRQLQYERDMVVNLFHELEKMTEVLDHEERVISNLSKVLEMVEECERRMQPDCSNPLTLDECARIFETLQDKYYEEYRMSDRVDLAVAIVYPLMKEYFKEWDPLKDCTYGTEIISKWKSLLENDQLLSHGGQDLSADAFHRLIWEVWMPFVRNIVTQWQPRNCDPMVDFLDSWVHIIPVWILDNILDQLIFPKLQKEVENWNPLTDTVPIHSWIHPWLPLMQARLEPLYSPIRSKLSSALQKWHPSDSSAKLILQPWKDVFTPGSWEAFMVKNIVPKLGMCLGELVINPHQQHMDAFYWVIDWEGMISVSSLVGLLEKHFFPKWLQVLCSWLSNSPNYEEITKWYLGWKSMFSDQVLAHPSVKDKFNEALDIMNRAVSSNVGAYMQPGARENIAYLTHTERRKDFQYEAMQERREAENMAQRGIGVAASSVPMNFKDLIETKAEEHNIVFMPVIGKRHEGKQLYTFGRIVIYIDRGVVFVQGEKTWVPTSLQSLIDMAK
# partner: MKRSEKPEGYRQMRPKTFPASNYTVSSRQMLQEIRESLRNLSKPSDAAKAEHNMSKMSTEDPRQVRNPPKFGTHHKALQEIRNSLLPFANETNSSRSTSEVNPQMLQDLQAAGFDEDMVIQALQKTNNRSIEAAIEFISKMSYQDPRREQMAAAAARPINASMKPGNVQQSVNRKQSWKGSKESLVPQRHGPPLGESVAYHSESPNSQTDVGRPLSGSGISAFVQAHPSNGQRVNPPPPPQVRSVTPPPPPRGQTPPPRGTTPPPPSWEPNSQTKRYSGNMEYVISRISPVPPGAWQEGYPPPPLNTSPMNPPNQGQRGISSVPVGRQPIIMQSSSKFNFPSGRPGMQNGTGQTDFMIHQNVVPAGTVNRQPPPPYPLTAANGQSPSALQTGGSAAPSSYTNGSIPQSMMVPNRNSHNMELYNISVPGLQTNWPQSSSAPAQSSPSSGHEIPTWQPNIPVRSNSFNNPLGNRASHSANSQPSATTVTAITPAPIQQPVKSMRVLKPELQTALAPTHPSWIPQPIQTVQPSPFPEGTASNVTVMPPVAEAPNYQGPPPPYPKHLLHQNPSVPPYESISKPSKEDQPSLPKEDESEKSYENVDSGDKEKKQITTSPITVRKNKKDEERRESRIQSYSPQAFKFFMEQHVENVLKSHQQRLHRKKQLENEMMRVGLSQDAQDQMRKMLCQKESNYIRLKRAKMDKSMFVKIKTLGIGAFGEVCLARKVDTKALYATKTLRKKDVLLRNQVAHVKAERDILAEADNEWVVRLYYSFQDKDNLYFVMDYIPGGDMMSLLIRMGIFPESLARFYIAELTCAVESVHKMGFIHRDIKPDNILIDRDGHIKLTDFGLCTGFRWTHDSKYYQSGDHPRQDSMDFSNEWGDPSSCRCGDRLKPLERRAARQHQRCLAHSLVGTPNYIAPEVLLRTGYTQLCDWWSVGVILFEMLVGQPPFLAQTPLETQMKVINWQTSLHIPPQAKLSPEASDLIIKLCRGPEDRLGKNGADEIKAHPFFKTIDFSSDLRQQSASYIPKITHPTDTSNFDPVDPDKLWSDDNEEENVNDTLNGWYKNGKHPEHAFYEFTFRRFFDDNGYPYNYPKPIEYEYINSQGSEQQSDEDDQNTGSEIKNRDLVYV
# B4: AP-4 complex subunit beta-1 (Homo sapiens), Q9Y6B7 (parent)
# chain: MPYLGSEDVVKELKKALCNPHIQADRLRYRNVIQRVIRYMTQGLDMSGVFMEMVKASATVDIVQKKLVYLYMCTYAPLKPDLALLAINTLCKDCSDPNPMVRGLALRSMCSLRMPGVQEYIQQPILNGLRDKASYVRRVAVLGCAKMHNLHGDSEVDGALVNELYSLLRDQDPIVVVNCLRSLEEILKQEGGVVINKPIAHHLLNRMSKLDQWGQAEVLNFLLRYQPRSEEELFDILNLLDSFLKSSSPGVVMGATKLFLILAKMFPHVQTDVLVRVKGPLLAACSSESRELCFVALCHVRQILHSLPGHFSSHYKKFFCSYSEPHYIKLQKVEVLCELVNDENVQQVLEELRGYCTDVSADFAQAAIFAIGGIARTYTDQCVQILTELLGLRQEHITTVVVQTFRDLVWLCPQCTEAVCQALPGCEENIQDSEGKQALIWLLGVHGERIPNAPYVLEDFVENVKSETFPAVKMELLTALLRLFLSRPAECQDMLGRLLYYCIEEEKDMAVRDRGLFYYRLLLVGIDEVKRILCSPKSDPTLGLLEDPAERPVNSWASDFNTLVPVYGKAHWATISKCQGAERCDPELPKTSSFAASGPLIPEENKERVQELPDSGALMLVPNRQLTADYFEKTWLSLKVAHQQVLPWRGEFHPDTLQMALQVVNIQTIAMSRAGSRPWKAYLSAQDDTGCLFLTELLLEPGNSEMQISVKQNEARTETLNSFISVLETVIGTIEEIKS
# partner: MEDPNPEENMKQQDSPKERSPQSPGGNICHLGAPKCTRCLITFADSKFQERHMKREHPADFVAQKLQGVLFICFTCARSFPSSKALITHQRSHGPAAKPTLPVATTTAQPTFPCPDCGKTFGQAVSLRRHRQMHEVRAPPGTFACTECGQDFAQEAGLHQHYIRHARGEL
# Variants of: B1
# Details: with clk3_human CLK3, P49761
# Chain of clk3_human CLK3, P49761 (P49761 whole entry, looked up): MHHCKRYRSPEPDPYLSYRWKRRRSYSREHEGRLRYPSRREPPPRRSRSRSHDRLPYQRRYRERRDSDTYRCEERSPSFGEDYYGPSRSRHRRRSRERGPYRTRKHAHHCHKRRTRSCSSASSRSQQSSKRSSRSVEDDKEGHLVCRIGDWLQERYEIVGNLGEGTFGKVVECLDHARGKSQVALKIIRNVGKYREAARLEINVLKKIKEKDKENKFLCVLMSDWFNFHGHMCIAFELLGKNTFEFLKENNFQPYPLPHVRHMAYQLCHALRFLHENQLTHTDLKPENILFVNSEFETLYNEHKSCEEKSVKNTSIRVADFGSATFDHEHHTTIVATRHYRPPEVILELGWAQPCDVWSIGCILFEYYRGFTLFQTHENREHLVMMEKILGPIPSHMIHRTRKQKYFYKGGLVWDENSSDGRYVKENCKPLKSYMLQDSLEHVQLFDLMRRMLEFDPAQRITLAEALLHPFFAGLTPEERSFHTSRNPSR
row,effect of a mutation on the interaction,Variant
1,with no effect,V620M

# Variants of: B2
# Details: with glcne_human GNE
row,effect of a mutation on the interaction,Variant
1,with no effect,R74Q
2,with no effect,A115T

# Variants of: B3
# Details: with lats1_human LATS1, O95835
row,effect of a mutation on the interaction,Variant
1,with no effect,S688L
2,with no effect,R8Q

# Variants of: B4
# Details: with zn576_human ZNF576, Q9H609
row,effect of a mutation on the interaction,Variant
1,with no effect,L480S
